Experiment [1] addresses CD122/CD132 complex (His-tagged, Acro Biosystem ILG-H5283) (UniProt P14784). Kind of experiment: SPR, CD122/CD132 captured on NTA chip. (SPR reads the build-up and loss of mass on a sensor chip optically.)
Experiment [2] deals with IL-2R on murine splenocytes (mouse) (UniProt P16297). In words: cell-based or functional assay.

Broadly, the Kd is the equilibrium constant for the complex coming apart. Low readings indicate a tighter complex, high ones a looser complex.

Chain of IL-2R on murine splenocytes (mouse) (P16297 27-539, chain 1 of 2): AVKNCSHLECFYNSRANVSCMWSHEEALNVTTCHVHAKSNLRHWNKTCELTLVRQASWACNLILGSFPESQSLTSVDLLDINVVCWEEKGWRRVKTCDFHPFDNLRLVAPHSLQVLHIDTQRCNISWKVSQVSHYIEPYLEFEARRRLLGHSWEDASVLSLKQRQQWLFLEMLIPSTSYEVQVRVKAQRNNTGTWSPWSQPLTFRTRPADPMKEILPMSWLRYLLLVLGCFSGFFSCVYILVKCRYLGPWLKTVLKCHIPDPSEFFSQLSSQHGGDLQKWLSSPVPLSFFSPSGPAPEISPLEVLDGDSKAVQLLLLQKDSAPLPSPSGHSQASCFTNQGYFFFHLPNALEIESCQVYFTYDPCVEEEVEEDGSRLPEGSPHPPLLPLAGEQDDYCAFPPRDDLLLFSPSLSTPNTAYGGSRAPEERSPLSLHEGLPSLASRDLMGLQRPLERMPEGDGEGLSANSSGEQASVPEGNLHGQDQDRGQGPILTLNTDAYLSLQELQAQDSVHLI
Chain of IL-2R on murine splenocytes (mouse) (P34902 23-369, chain 2 of 2, further chain): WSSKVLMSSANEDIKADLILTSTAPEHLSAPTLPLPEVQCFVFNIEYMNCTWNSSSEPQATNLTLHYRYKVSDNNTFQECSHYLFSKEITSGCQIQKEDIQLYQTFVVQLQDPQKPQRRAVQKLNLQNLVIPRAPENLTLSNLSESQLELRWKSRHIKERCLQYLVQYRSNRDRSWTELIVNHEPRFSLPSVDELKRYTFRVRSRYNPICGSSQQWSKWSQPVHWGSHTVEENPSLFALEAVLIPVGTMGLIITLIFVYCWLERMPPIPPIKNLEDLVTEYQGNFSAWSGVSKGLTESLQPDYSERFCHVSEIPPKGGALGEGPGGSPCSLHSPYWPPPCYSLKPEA
Chain of CD122/CD132 complex (His-tagged, Acro Biosystem ILG-H5283) (P14784 27-239 limits assumed, chain 1 of 2): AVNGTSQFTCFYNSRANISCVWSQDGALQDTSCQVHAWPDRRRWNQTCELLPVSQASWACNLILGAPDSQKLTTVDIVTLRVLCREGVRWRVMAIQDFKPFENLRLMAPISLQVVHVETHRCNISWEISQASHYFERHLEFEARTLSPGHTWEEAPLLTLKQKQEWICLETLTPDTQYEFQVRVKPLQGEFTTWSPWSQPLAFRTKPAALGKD
Chain of CD122/CD132 complex (His-tagged, Acro Biosystem ILG-H5283) (P31785 23-262 limits assumed, chain 2 of 2, further chain): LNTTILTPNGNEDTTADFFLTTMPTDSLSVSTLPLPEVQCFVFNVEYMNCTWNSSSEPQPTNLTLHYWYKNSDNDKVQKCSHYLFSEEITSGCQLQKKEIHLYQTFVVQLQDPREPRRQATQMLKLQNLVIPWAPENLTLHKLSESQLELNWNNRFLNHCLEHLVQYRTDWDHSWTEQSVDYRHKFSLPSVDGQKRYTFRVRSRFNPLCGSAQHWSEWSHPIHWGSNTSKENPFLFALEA

In experiment [1], Proleukin (ligand) yielded a Kd of 0.42 nM. Further, in experiment [2], the EC50 CD8 cells (pSTAT5) stood at 4.1 nM, the EC50 NK cells (pSTAT5) is 1.4 nM, the EC50 Treg cells (pSTAT5) is less than 0.016 nM and the EC50 pSTAT5 on CD8 cells was found to be 11.9 nM. In addition, in experiment [2], the EC50 pSTAT5 on NK cells turned out to be 2.51 nM and the EC50 pSTAT5 on Treg cells is less than 0.02 nM.

The values above are taken from EP4491631A1.
